Results on two substances are retold here after doi:10.1101/2024.10.11.617910.

Test [1] deals with pyroglutamate beta-amyloid peptide (pGlu3-Aβ). The test can be described thus: SiMoA.
The target of the next test is beta-amyloid 42 peptide (UniProt P05067). The test can be described thus: SiMoA.

For Donanemab (antibody), the limit of detection (LoD) in test [1] came out at 5 pM.

As to Aducanumab (antibody), the limit of detection (LoD) with beta-amyloid 42 peptide turned out to be 200 pM; in test [1], 56 pM.
